Experiments:
[1] = target: T1, murine norovirus particle (capsid of 180 VP1) (Murine norovirus 1 (MNV-1, clone CW-1)) (UniProt B7XA03); assay: electrochemical aptasensor (SWV); conditions: thiol (end not stated in material); GSB: 50 mM NaCl, 20 mM Tris-HCl pH 7.4, 3 mM MgCl2, 5 mM KCl, room temperature (anisotropy ~1 h; filter 24 h); aptasensor: Dulbecco's PBS, 25 C, 1 h
T1 sequence: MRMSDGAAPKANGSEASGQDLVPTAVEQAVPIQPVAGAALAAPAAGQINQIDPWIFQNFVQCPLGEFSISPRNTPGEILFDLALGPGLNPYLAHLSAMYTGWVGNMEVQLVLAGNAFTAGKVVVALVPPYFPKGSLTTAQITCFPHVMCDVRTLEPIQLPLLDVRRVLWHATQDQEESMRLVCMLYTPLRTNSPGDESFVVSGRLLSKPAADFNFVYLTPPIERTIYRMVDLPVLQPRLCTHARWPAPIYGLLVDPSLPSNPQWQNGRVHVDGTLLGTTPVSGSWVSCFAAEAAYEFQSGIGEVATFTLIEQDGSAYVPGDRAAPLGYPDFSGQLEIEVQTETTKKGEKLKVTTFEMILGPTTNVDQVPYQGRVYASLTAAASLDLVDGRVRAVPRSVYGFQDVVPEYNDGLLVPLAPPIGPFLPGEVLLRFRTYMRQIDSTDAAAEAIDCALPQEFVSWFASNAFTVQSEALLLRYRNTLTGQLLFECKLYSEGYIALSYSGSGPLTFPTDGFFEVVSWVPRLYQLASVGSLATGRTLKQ

[2] = target: T1, murine norovirus particle (capsid of 180 VP1) (Murine norovirus 1 (MNV-1, clone CW-1)); assay: filter binding (polycarbonate)

Row | Sequence | binding signal (% of current decrease (110.6 to 34.6 uA)) [1] | K half [2] [pM]
1 | GCTAGCGAATTCCGTACGAAGGGCGAATTCCACATTGGGCTGCAGCCCGGGGGATCC [thiolated AG3 (aptasensor)] | 100 | –
2 | GCTAGCGAATTCCGTACGAAGGGCGAATTCCACATTGGGCTGCAGCCCGGGGGATCC [AG3] | – | 0.1

Reference: article PMC3828344
